This passage reports activity (fold luminescence enhancement) results from patent US20170145472.

The series concerns the target T1, HCV NS3 helicase (Hepatitis C virus) (UniProt P26663).
T1 sequence: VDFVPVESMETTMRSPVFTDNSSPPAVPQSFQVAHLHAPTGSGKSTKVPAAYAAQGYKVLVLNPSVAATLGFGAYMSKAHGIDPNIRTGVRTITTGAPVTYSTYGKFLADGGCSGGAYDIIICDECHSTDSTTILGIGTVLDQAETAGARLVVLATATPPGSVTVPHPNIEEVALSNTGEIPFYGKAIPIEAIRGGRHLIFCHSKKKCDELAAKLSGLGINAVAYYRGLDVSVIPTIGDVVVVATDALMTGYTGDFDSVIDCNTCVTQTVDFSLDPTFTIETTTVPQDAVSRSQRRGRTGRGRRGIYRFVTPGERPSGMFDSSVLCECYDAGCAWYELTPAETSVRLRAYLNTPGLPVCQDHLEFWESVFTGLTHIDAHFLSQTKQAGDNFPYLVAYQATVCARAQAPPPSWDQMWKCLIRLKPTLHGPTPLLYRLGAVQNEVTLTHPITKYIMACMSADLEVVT

Take “GTGGGTAGGGCGGGTTGGTGGCGACGGCAGCGAGGCAGAGGAGCAGAGGGAGCA / GCCTCGCTGCCGTCGCCACCAACCCGCCC [ON1/ON2 duplex substrate]”: the activity (fold luminescence enhancement) was 4.5.
